Source: the RNAGym collection of RNA variant scans (doi:10.1021/acssynbio.7b00057)

B1: Pistol ribozyme (parent)
chain: GGGUCGUUGUUCCAUAAUCGCGUGGAUAUGGCACGCAAGUUUCUACCGGGCACCGUAAAUGUCCGACUGGAGCCGUUCGGGCGGCUAUAAACAGACCUCAGGCCCGAAGCGUGGCGGCACCUGCCGCCGGUGGUAAAAAAGAUCGGAAGAGCACACGUCU

Variants of: B1
Assay: aptazyme ON/OFF ratio, guanine; higher = stronger switching; co-transcriptional cleavage with and without guanine

Point of comparison: U8C G9C C12A, “aptazyme ON/OFF ratio” value 1.16. Against it:
- U8C G9C U10A U11A C13A — lower, 1.15
- U8C G9C U10A U11A C13U — lower, 1.09
- U8C G9C U10A U11A C13G — higher, 1.17
- U8C G9A C13A — higher, 1.22
- U8C G9A C13U — higher, 1.43
- U8C G9A C13G — lower, 1.07
- U8C G9A U10C C12A C13U — higher, 1.33
- U8C G9A U10C C12A C13G — higher, 1.18
- U8C G9A U10C C12A C13A — higher, 1.27
- U8C G9A U10C U11C C12A C13U — lower, 1.1
- U8C G9A U10C U11C C12A C13G — lower, 1.12
- U8C G9A U10C U11C C12A C13A — lower, 1.13
- U8C G9A U11A C12A C13G — lower, 1.13
- U8C G9A U11A C12A C13A — lower, 1.15
- U8C G9A U11A C12A C13U — higher, 1.34
- U8A U11G C13U — lower, 1.04
- U8A U11G C13A — lower, 1.03
- U8A U11G C13G — lower, 1.04
- U8C G9A U11A C13A — higher, 1.2
- U8C G9A U11A C13G — lower, 1.04
- U8C G9A U11A C13U — higher, 1.22
- U8C G9A U10G U11C C13U — lower, 1.06
- U8C G9A U10G U11C C13A — lower, 1.11
- U8C G9A U10G U11C C13G — lower, 1.07
- U8C G9A U10C U11A C13A — higher, 1.2
- U8C G9A U10C U11A C13U — higher, 1.3
- U8C G9A U10C U11A C13G — lower, 1.15
- U8C G9A U10G U11A C12U — lower, 1.04
- U8C G9A U10G U11A C12G — lower, 1.14
- U8C G9A U10G U11A C12A — higher, 1.19
- U8C G9A U10G — higher, 1.57
- U8C G9A U10A — higher, 1.78
- U8C G9A U10C — higher, 3.49
- U8C G9A U10A U11A C13A — higher, 1.17
- U8C G9A U10A U11A C13G — lower, 1.07
- U8C G9A U10A U11A C13U — higher, 1.28
- U8C G9A U10A U11A C12U C13U — higher, 1.19
- U8C G9A U10A U11A C12U C13G — higher, 1.18
- U8C G9A U10A U11A C12U C13A — higher, 1.28
- U8C G9A U10C U11C C13U — lower, 1.01
- U8C G9A U10C U11C C13G — lower, 1.02
- U8C G9A U10C U11C C13A — lower, 1.01
- U8C G9C U10A C12G C13A — higher, 1.2
- U8C G9C U10A C12G C13G — lower, 1.15
- U8C G9C U10A C12G C13U — higher, 1.2
- U8C G9A U11C C12A C13U — higher, 1.17
- U8C G9A U11C C12A C13G — lower, 1.14
- U8C G9A U11C C12A C13A — lower, 1.15
- U8C G9C C12G — higher, 1.19
- U8C G9C C12U — lower, 1.08
- U8C G9C U10A U11A C12A C13G — lower, 1.11
- U8C G9C U10A U11A C12A C13U — lower, 1.08
- U8C G9C U10A U11A C12A C13A — lower, 1.07
- U8C G9A U10C C13U — higher, 1.66
- U8C G9A U10C C13A — lower, 1.06
- U8C G9A U10C C13G — lower, 1.1
- U8C G9A C12U C13A — higher, 1.17
- U8C G9A C12U C13U — higher, 1.25
- U8C G9A C12U C13G — higher, 1.19
- U8C G9A U10A U11A C12G — higher, 1.32
- U8C G9A U10A U11A C12A — higher, 1.3
- U8C G9A U10A U11A C12U — higher, 1.35
- U8C G9A U10A U11C C12U — lower, 1.09
- U8C G9A U10A U11C C12G — higher, 1.29
- U8C G9A U10A U11C C12A — higher, 1.25
- U8C G9A U10A U11C C12G C13G — higher, 1.35
- U8C G9A U10A U11C C12G C13A — higher, 1.21
- U8C G9A U10A U11C C12G C13U — higher, 1.3
- U8C G9A U11G C12G — higher, 1.3
- U8C G9A U11G C12U — higher, 1.29
- U8C G9A U11G C12A — lower, 1.06
- U8C G9A U10G U11G C12A C13G — lower, 1.14
- U8C G9A U10G U11G C12A C13U — higher, 1.2
- U8C G9A U10G U11G C12A C13A — lower, 1.15
- U8C G9A U10C C12U — higher, 1.95
- U8C G9A U10C C12G — higher, 1.24
- U8C G9A U10C C12A — higher, 1.35
- U8C C13G — lower, 1.11
- U8C C13A — higher, 1.36
- U8C C13U — higher, 1.55
- U8C G9A U10G U11C C12U C13A — higher, 1.2
- U8C G9A U10G U11C C12U C13G — lower, 1.15
- U8C G9A U10G U11C C12U C13U — higher, 1.28
- U8C G9A U11A C12U — lower, 1.1
- U8C G9A U11A C12A — higher, 1.25
- U8C G9A U11A C12G — higher, 1.18
- U8C G9A U11C C12U — the same, 1.16
- U8C G9A U11C C12G — higher, 1.29
- U8C G9A U11C C12A — higher, 1.3
- U8C G9A U10A U11A C12A C13U — higher, 1.3
- U8C G9A U10A U11A C12A C13A — lower, 1.15
- U8C G9A U10A U11A C12A C13G — lower, 1.15
- U8C C12U C13U — higher, 1.28
- U8C C12U C13A — higher, 1.26
- U8C C12U C13G — higher, 1.39
- U8C G9A U10G U11G C13U — lower, 1.09
- U8C G9A U10G U11G C13A — lower, 1.15
- U8C G9A U10G U11G C13G — lower, 1.13
- U8C G9C U10A U11A C12G C13A — lower, 1.1
- U8C G9C U10A U11A C12G C13G — higher, 1.18
- U8C G9C U10A U11A C12G C13U — lower, 1.12
- U8C G9C U10A C12G — higher, 1.25
- U8C G9C U10A C12A — lower, 1.11
- U8C G9C U10A C12U — lower, 1.13
- U8C G9A U11G — higher, 1.45
- U8C G9A U11C — lower, 1.09
- U8C G9A U11A — higher, 1.25
- U8C G9C U10A — higher, 1.51
- U8C G9C U10A U11C C12A — higher, 1.24
- U8C G9C U10A U11C C12G — higher, 1.2
- U8C G9C C12A C13A — lower, 1.08
- U8C G9C C12A C13U — lower, 1.1
- U8C G9C C12A C13G — lower, 1.1
- U8C G9C U10A U11A — higher, 1.24
- U8C G9C U10A U11C — lower, 1.05
- U8C G9A U10C U11A C12G — higher, 1.37
- U8C G9A U10C U11A C12U — higher, 1.55
- U8C G9A U10C U11A C12A — higher, 1.44
- U8C G9A U10G U11C C12A C13G — lower, 1.1
- U8C G9A U10G U11C C12A C13A — lower, 1.15
- U8C G9A U10G U11C C12A C13U — higher, 1.22
- U8C G9A U10C C12G C13A — higher, 1.18
- U8C G9A U10C C12G C13U — higher, 1.25
- U8C G9A U10C C12G C13G — higher, 1.4
- U8C G9A U10C U11G C12G C13U — lower, 1.14
- U8C G9A U10C U11G C12G C13G — higher, 1.23
- U8C G9A U10C U11G C12G C13A — higher, 1.42
- U8C G9A U10C U11G C12U C13A — higher, 1.42
- U8C G9A U10C U11G C12U C13U — higher, 1.51
- U8C G9A U10C U11G C12U C13G — lower, 1.15
- U8C G9A U10G C12A C13G — lower, 1.1
- U8C G9A U10G C12A C13U — higher, 1.28
- U8C G9A U10G C12A C13A — higher, 1.27
- U8C G9A U10C U11C C12G C13A — higher, 1.24
- U8C G9A U10C U11C C12G C13G — higher, 1.3
- U8C G9A U10C U11C C12G C13U — the same, 1.16
- U8C G9C C12U C13G — lower, 1.07
- U8C G9C C12U C13A — lower, 1.05
- U8C G9C C12U C13U — lower, 1.13
- U8C G9C U10A C12U C13U — lower, 1.14
- U8C G9C U10A C12U C13G — lower, 1.12
- U8C G9C U10A C12U C13A — lower, 1.08
- U8C G9C U10A U11A C12U C13U — lower, 1.08
- U8C G9C U10A U11A C12U C13A — lower, 1.09
- U8C G9C U10A U11A C12U C13G — lower, 1.1
- U8C G9C U10A U11A C12U — lower, 1.05
- U8C G9C U10A U11A C12G — higher, 1.25
- U8C G9C U10A U11A C12A — lower, 1.12
- U8C G9A U10G U11C C12U — lower, 1.07
- U8C G9A U10G U11C C12G — higher, 1.23
- U8C G9A U10G U11C C12A — higher, 1.23
- U8C G9A U10A C12G C13A — lower, 1.14
- U8C G9A U10A C12G C13G — higher, 1.18
- U8C G9A U10A C12G C13U — higher, 1.31
- U8C G9A U11C C12G C13A — higher, 1.24
- U8C G9A U11C C12G C13U — higher, 1.18
- U8C G9A U11C C12G C13G — higher, 1.26
- U8C G9A U10A C12U C13G — higher, 1.24
- U8C G9A U10A C12U C13U — higher, 1.33
- U8C G9A U10A C12U C13A — the same, 1.16
- U8C G9A U10G U11G C12G C13U — lower, 1.11
- U8C G9A U10G U11G C12G C13G — lower, 1.09
- U8C G9A U10G U11G C12G C13A — lower, 1.1
- U8C G9C U10A U11C C12A C13G — higher, 1.18
- U8C G9C U10A U11C C12A C13A — higher, 1.27
- U8C G9C U10A U11C C12A C13U — higher, 1.22
